Laboratory results taken from patent EP4034238B1 (Centro Nacional de Investigaciones Cardiovasculares Carlos …, dated 2025).

Experiments:
[1] = biological target: T1, Aldehyde Dehydrogenase 4 Family Member A1 (ALDH4A1), endogenous mouse protein from aorta lysate (mouse, UniProt Q8CHT0 24-562); assay: deep proteomics analysis (IP + mass spectrometry)
T1 construct: Native protein precipitated from mouse aorta lysates; also called ALDH4A1 mitochondrial protein
T1 sequence (looked up): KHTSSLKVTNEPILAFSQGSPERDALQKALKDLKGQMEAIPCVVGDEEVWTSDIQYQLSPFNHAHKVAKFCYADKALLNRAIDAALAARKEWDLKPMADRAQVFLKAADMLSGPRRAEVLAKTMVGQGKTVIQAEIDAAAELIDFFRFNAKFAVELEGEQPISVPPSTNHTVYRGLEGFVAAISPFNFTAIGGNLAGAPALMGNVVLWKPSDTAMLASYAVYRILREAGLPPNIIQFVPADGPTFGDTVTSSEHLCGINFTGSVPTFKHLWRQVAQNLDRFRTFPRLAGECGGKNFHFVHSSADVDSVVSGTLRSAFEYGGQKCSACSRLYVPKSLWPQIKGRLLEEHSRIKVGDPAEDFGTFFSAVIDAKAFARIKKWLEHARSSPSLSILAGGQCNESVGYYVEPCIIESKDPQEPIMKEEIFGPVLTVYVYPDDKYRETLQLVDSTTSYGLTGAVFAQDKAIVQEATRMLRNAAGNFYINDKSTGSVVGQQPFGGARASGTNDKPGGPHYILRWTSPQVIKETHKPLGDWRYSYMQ

[2] = biological target: T2, ALDH4A1-FLAG protein (mouse ALDH4A1, C-Flag tag) (mouse, UniProt Q8CHT0 24-562, limits assumed); assay: ELISA screen for ALDH4A1 reactivity (mark in Table 1)
T2 construct: Purified on anti-FLAG M2 gel and coated at 5 ug/ml in the ELISAs; used as lysate of transfected HEK293T cells in the IP; also called murine ALDH4A1-FLAG; not shown: C-terminal FLAG tag
T2 sequence (looked up): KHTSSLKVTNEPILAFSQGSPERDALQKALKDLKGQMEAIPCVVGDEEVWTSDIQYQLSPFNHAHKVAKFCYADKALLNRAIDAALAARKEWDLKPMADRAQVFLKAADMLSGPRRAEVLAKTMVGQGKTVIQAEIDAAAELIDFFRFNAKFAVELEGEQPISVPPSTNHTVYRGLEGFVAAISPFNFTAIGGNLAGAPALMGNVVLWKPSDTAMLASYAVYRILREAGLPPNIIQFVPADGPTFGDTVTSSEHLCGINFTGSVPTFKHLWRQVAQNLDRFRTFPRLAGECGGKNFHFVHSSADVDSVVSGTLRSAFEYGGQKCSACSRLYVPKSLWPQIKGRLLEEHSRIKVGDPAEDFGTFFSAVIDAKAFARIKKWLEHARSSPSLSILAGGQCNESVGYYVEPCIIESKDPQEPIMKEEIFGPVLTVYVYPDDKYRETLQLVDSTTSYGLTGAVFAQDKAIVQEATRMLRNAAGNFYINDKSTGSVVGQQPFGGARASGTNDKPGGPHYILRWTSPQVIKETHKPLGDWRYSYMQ

B1: A12 antibody (antibody, human IgG1, V domains shown)
VH: EVQLVESGGDLVKPGGSLKLSCAASGFTFSSYGMSWVRQTPDKRLEWVATISSGGSYTYYPDSVKGRFTISRDNAKNTLYLQMSSLKSEDTAMYYCARPHVVTTPGWYFDVWGTGTTVTVSS
VL: DIVMTQSPATLSVTPGDRVSLSCRASQSISDYLHWYQQKSHESPRLLIKYASQSISGIPSRFSGSGSGSDFTLSINSVEPEDVGVYYCQNGHSFPLTFGAGTKLELK
notes: also called huA12-IgG1
B1: binds [1]; binds [2].
